In the supplement of paper PMC12764529:
± gives the half width of the 95% confidence interval.

Experiments:
[1] = folding stability dG unfold (combined trypsin and chymotrypsin); higher = more stable
Method in brief: (§1)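 Only designs with AlphaFold2 dimer inter-PAE above 15 were retained; each was a mini-protein under 80 residues with no cysteine, in a PA-tagged cDNA display construct. After digestion with trypsin and chymotrypsin and sequencing, K50 was inferred by Bayesian fitting of counts, and unfolding free energy was derived per protease or combined against a sequence-predicted unfolded-state K50 and a shared folded-state K50.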

[2] = folding stability dG unfold from trypsin proteolysis; higher = more stable
Method in brief: as §1

[3] = folding stability dG unfold from chymotrypsin proteolysis; higher = more stable
Method in brief: as §1

Row | Sequence | folding stability dG unfold [1] | folding stability dG unfold [2] | folding stability dG unfold [3]
1 | SAGGSAGGSAGMELTVKVPPDTTPEEVKEKIEKELGLKVKSISVSSFPDGTRTVTITIGPSAGGSAGGSAGG [r17_222_JUSTAS] | 2.45 ± 0.21 kcal/mol | 2.45 ± 0.27 kcal/mol | 2.45 ± 0.14 kcal/mol
2 | SAGGSAGGSAMPKVTIKITVYNAETGELRTVTLTLPEEDMSLEEIAAALPPGWRIVKVELLSAGGSAGGSAG [r3_80_TrROS_Hall] | 4.34 ± 0.075 kcal/mol | 3.46 ± 0.077 kcal/mol | 4.65 ± 0.074 kcal/mol
3 | SAGGRVRLEERVLPDGRRVLVVHLPDRPLEVVIPLEGLALPPDQPVLVRGEGGVRELPIGDLLPEALFSAGG [r13_97_TrMRF] | 0.88 ± 0.036 kcal/mol | 1.06 ± 0.011 kcal/mol | 0.658 ± 0.053 kcal/mol
4 | SAGGKIKIKINGKTYTVEDAEIIEVKKNKNGKKEIIIKIKVNGKTYEIVISEEDLKKIKPGDTITLKSAGGS [r16_638_TrROS_Hall] | 2.96 ± 0.059 kcal/mol | 2.4 ± 0.053 kcal/mol | 3.19 ± 0.045 kcal/mol
5 | SAGSTTRVVELPGNKRVEVEVSTVGDSLTFTITLRDEEGNPVKTLPVAVPDPSLPVEEAIAAAVAAFLASAG [r5_630_JUSTAS] | 3.68 ± 0.042 kcal/mol | 3.15 ± 0.049 kcal/mol | 3.91 ± 0.029 kcal/mol
6 | SAGGSAGGSMEPRPVVITFRDPEGNFIGTVELPAEFESEEEALAAAEAVRAANPGYTVEIEGLSAGGSAGGS [r20_201_JUSTAS] | 1.87 ± 0.07 kcal/mol | 1.67 ± 0.084 kcal/mol | 1.98 ± 0.033 kcal/mol
7 | SSITETKEFLLESEEEVEAIAEELKKPGVEVEVEVKEVERVDKKTGKKKKALKATITVKIPLPPPEKGKLSA [r9_962_JUSTAS] | 0.794 ± 0.15 kcal/mol | 0.79 ± 0.054 kcal/mol | 0.742 ± 0.069 kcal/mol
8 | SAGGSAGGSAGGMTVVERTIEVEPDAKVIPLNLPGSNISATVLEYDPETGTLKVKIYVKESAGGSAGGSAGG [r17_198_JUSTAS] | 0.945 ± 0.11 kcal/mol | 0.485 ± 0.05 kcal/mol | 1.06 ± 0.12 kcal/mol
9 | SAGGSAGGSAGGENDWIPIRMEMTFKLPNGVKITIKMEMWVQPDGDILGMRIHDIEIEVPSAGGSAGGSAGG [r7_356_TrROS] | 4.54 ± 0.21 kcal/mol | 3.6 ± 0.21 kcal/mol | 4.75 ± 0.12 kcal/mol
10 | SAGGSAGGSAGGMSPGSSSTTVTTTTSPNGTVVTTTTTTTLDPNSNTTSSTTTTTTTTTSAGGSAGGSAGGS [r10_1164_JUSTAS] | 2.42 ± 0.25 kcal/mol | 3.15 ± 0.25 kcal/mol | 1.74 ± 0.18 kcal/mol
11 | SMGSITITLPATPEELRELLREKGISPELAPSWEEVKEALKKAFPKNVTVTINPKSPVSEEAAKAAREGSSA [r9_74_JUSTAS] | 1.13 ± 0.064 kcal/mol | 0.462 ± 0.038 kcal/mol | 1.45 ± 0.017 kcal/mol
12 | SAGGGTRTINFDSPEDAEDAIEDWPDWDKVTISVPSNGEPQSIPLKIKPPPPPKYKRDENGKPEPEPDSAGG [r13_183_TrROS] | 2.65 ± 0.25 kcal/mol | 2.08 ± 0.14 kcal/mol | 2.95 ± 0.19 kcal/mol
13 | SAGGSAGGSASSSSSIKFLSEEEIKLPDGTPVKVKIYKDPSNNKEYLYLPESKVWLPISKISAGGSAGGSAG [r3_181_JUSTAS] | 1.67 ± 0.1 kcal/mol | 1.41 ± 0.033 kcal/mol | 1.74 ± 0.037 kcal/mol
14 | SGMPPVSFANLELVAVSPDGTVTVVRAELTGPDGERYVWTGSLSELLKRLEEEDLTLDNFKEGGLIVAVDSA [r9_1078_TrMRF] | 3.44 ± 0.041 kcal/mol | 2.77 ± 0.06 kcal/mol | 3.75 ± 0.039 kcal/mol
15 | SAGGSAGGSAGGPDAAPSAVREYVLVTVPVYAENGTPLGPVTVVAPASVSLAAVADAVFNSAGGSAGGSAGG [r7_109_TrMRF] | 0.399 ± 0.11 kcal/mol | 0.292 ± 0.077 kcal/mol | 0.368 ± 0.19 kcal/mol
16 | SAMEIEKIEIEKEEVNGKLYYRIRVKIINKETGKEIELELEFKSLEDALEALKKLPNITRVEITEIEPVSAG [r14_464_TrROS_Hall] | 4.93 ± 0.093 kcal/mol | 3.55 ± 0.11 kcal/mol | 5.18 ± 0.091 kcal/mol
17 | SAGGSAGGSAGKEYIVRITLPNGKVYEFPGKLEDVVKALPPEYKDAVIEVFDPRTGKRVSSAGGSAGGSAGG [r11_353_TrMRF] | 3.84 ± 0.089 kcal/mol | 2.53 ± 0.049 kcal/mol | 4.26 ± 0.057 kcal/mol
18 | SAGSSAVEVDIDEELKEKLKKLIDPDKPIEITRLKTTTNETIILITEKGSGKKYIFTRNKEGKIEIKKSAGG [r19_70_JUSTAS] | 2.38 ± 0.069 kcal/mol | 2.07 ± 0.061 kcal/mol | 2.5 ± 0.065 kcal/mol
19 | SAGNIKIEDIEPNDDYYTLVIKAPENGRTIMIQYNPNNNRIPIMIFPPGGVRTIPIPMNDIEDFLKEILSAG [r5_769_TrROS] | 0.893 ± 0.22 kcal/mol | 0.79 ± 0.086 kcal/mol | 0.903 ± 0.049 kcal/mol
20 | SAGGSAGGSAKKTLTVKPGQTVTVKNKKTGKTYTATVEKDKDGNLTVKLENGKTYTINLKDLSAGGSAGGSA [r18_169_TrROS_Hall] | 1.8 ± 0.093 kcal/mol | 0.967 ± 0.083 kcal/mol | 2.15 ± 0.078 kcal/mol
21 | SAGGSPNIKITSKEKEGSKLKYTIQTPDKTITIEYSEGKATFKFPDGSTKTLTGKGSLEKAIKEAVLSSAGG [r13_98_JUSTAS] | 1.59 ± 0.2 kcal/mol | 0.936 ± 0.11 kcal/mol | 1.99 ± 0.25 kcal/mol

Row | Sequence | folding stability dG unfold [1] | folding stability dG unfold [2] | folding stability dG unfold [3]
22 | SAGGSAGGSAGNPNTPVIVKITLPGGKEITLEGTVSEAEEIVKKLEEEGHPFVEVEVYNRSAGGSAGGSAGG [r11_946_JUSTAS] | 0.0762 ± 0.14 kcal/mol | 0.422 ± 0.041 kcal/mol | -0.849 ± 0.3 kcal/mol
23 | SAGGSAGGSMELVIPKEEVEKMSEEVVKKIKELAKKANISISETEDSLVIPIKKVSEKVIKELSAGGSAGGS [r12_945_JUSTAS] | 0.232 ± 0.1 kcal/mol | -0.325 ± 0.075 kcal/mol | 0.497 ± 0.045 kcal/mol
24 | SAGGDPGKPTSVTLTLTVPKDKKTVKLEVTFNPETGEAVITFPGSSKTVTLPFGSLPDVLDAAKKLLYSAGG [r13_439_TrMRF] | 2.49 ± 0.07 kcal/mol | 2.31 ± 0.063 kcal/mol | 2.65 ± 0.035 kcal/mol
25 | SAGGSAGGSGMMYKVTVEIYNPANGEKIGTIEREVTSEEEAKAEIEKELPLENVKVKITIEGPSAGGSAGGS [r12_578_JUSTAS] | 0.983 ± 0.25 kcal/mol | 0.846 ± 0.084 kcal/mol | 0.818 ± 0.18 kcal/mol
26 | SAGGSAGGMTKTEVTVTVEKVPDGTYVVKTTKTTTTTNPDGTLTSSTTTTTKTVTPEELAAVLASAGGSAGG [r6_974_JUSTAS] | 3.16 ± 0.11 kcal/mol | 3.7 ± 0.15 kcal/mol | 2.86 ± 0.044 kcal/mol
27 | SAGGSARYYFIVIEIWQPGKPVKFIIVVPKEDPKKFESEINEMFPGYNIDIKVIPFPSPEEAEDLFSAGGSA [r15_889_TrROS] | 2.74 ± 0.17 kcal/mol | 2.26 ± 0.1 kcal/mol | 2.97 ± 0.088 kcal/mol
28 | SAGMVEITVEVKEDGTVIVTIPATSPEEALEVAEEVARELAKQFGAEHTEFVIEPVPDDTLVLLVPIKKSAG [r5_772_TrMRF] | 0.874 ± 0.23 kcal/mol | 0.389 ± 0.065 kcal/mol | 1.26 ± 0.11 kcal/mol
29 | SAGGSAGGSAGGGITIKGPGSVTVTVPASDVASISVDPATGTVTVEIPATGTTLTVPPASAGGSAGGSAGGS [r10_200_JUSTAS] | 0.604 ± 0.07 kcal/mol | 1.03 ± 0.037 kcal/mol | 0.238 ± 0.033 kcal/mol
30 | SAGGSAGGSAGGMLSGQVIEVTIPPERRLVRVEKLPSGDYLITIYRPDEPKPLETLRIRASAGGSAGGSAGG [r7_620_JUSTAS] | 1.78 ± 0.11 kcal/mol | 1.49 ± 0.034 kcal/mol | 1.92 ± 0.071 kcal/mol
31 | SAGGSAGGSAGEEVLTLTFPVPPDAPPPGLEAIRESLPGLEDVELDAEELPDGTVRVVLSSAGGSAGGSAGG [r17_205_TrMRF] | -0.452 ± 0.68 kcal/mol | -0.558 ± 0.19 kcal/mol | -0.172 ± 0.4 kcal/mol
32 | SAGGSAGGSEAKIELEYDEETNTLTVRIEVDGELYEERIEVTIEPAPPPPPPVEVVVVELPEESAGGSAGGS [r12_70_TrROS_Hall] | 2.4 ± 0.49 kcal/mol | 1.56 ± 0.55 kcal/mol | 2.71 ± 0.21 kcal/mol
33 | SAGSIPELIREAFPSKVDRVEVTTEKLPNGTTKTTIKVYVDDPEVAERLAKEINELSGEPLENLTVTEESAG [r5_542_JUSTAS] | 0.652 ± 0.13 kcal/mol | 0.0676 ± 0.11 kcal/mol | 0.981 ± 0.039 kcal/mol
34 | SAGGSAGGSAGPMEVERETIMIPIDPDKGYYIMIDVWRYKNPGGPPFPAPSISIMDLDDLSAGGSAGGSAGG [r11_51_TrROS] | 2.68 ± 0.11 kcal/mol | 1.78 ± 0.072 kcal/mol | 3.11 ± 0.045 kcal/mol
35 | SAGGSAGGSMPPLAPDETVTQTLPSPDGSEVLVTYTWVPGEGLVETKVTDPATGKTTSTKTPVPSAGGSAGG [r6_440_JUSTAS] | -0.0833 ± 0.16 kcal/mol | 0.0545 ± 0.067 kcal/mol | -0.521 ± 0.31 kcal/mol
36 | SAGGSAGGDESSTPPVTTTSTTPLPDGSTVTVTSTTTYPDSTTTTTKTYSNGSTTTSTTTTPGSSAGGSAGG [r6_910_JUSTAS] | -0.285 ± 0.13 kcal/mol | -0.0832 ± 0.051 kcal/mol | -0.803 ± 0.35 kcal/mol
37 | SAGGSAPNKWKTVDIEFMFPPDNLEEFVDEISKLPGIKASIEPVEYDPEGMYWMKIDITIPPGMKISAGGSA [r15_441_TrROS] | 1.64 ± 0.21 kcal/mol | 1.16 ± 0.048 kcal/mol | 1.74 ± 0.12 kcal/mol
38 | SAGGSADVKITEVHNPHRNPNGRPFFMVRIKWPDNGTHTIMMNPNDLDDLLAQLPPNWKIDEIHPISAGGSA [r15_339_TrROS] | 1.57 ± 0.049 kcal/mol | 1.39 ± 0.025 kcal/mol | 1.68 ± 0.055 kcal/mol
39 | SAGGSAGGSAPPRRVTIEYDPDSGMFKVKVPGGKEREIEGMPPNQIEEQAKDYGIDRVEIVSAGGSAGGSAG [r3_78_TrROS] | -0.0794 ± 0.18 kcal/mol | 0.205 ± 0.16 kcal/mol | -0.286 ± 0.41 kcal/mol
40 | SAGGKPKVEIKIEEIPVDGELYLVIEIKVEEKNATLTLTLPNGEEITMEFDEETGTVRIIARIPLEDLSAGG [r13_380_TrROS_Hall] | 3.12 ± 0.22 kcal/mol | 3.24 ± 0.29 kcal/mol | 3.09 ± 0.15 kcal/mol
41 | SMKELVKRIAERFPNFKVKIKPEKTGGKKYRTVRIENPDSGRDMEIVFTKNGDIQIEMPNGRRIPLEDILSA [r9_1176_TrROS] | 1.36 ± 0.059 kcal/mol | 1.46 ± 0.018 kcal/mol | 1.1 ± 0.077 kcal/mol
42 | SKGTFRAVLPLETLKELIERFKSKGYRIEVKPLSIKPFEVPGIREDGTPELFPVVEVEAEIEIYPPEDPASA [r9_991_TrMRF] | 1.82 ± 0.066 kcal/mol | 1.671 ± 0.015 kcal/mol | 1.9 ± 0.063 kcal/mol
